Assay results reported in US11419948B2, “Functionalized microgels with fibrin binding elements” (Georgia Tech Research Corporation, priority 2013, dated 2022).

Columns and labels:
[1] = test system: platelet-poor plasma; test: Gross clot contraction of platelet-poor plasma clots; format: biochemical
Text: Clot collapse was characterized at the macroscopic level by performing standard gross clot contraction experiments routinely utilized by platelet biologists, Thomas, et al., BMC Cell Biology, 8:46 (2007); Suzuki-Inoue, et al., Thrombosis Research, 120:251-258 (2007). It was expected that particle deformability would play a large role in the ability of fibrin-binding microgels to induce gross clot deformation and architectural changes. Clots were created through the addition of 1 U/mL thrombin (final concentration) to platelet-poor plasma containing microgels of varying crosslinking. Clot collapse was observed within 48 hours in the presence of PLPs but not under any other conditions tested (FIG. 4B). […] Because natural platelet mediated contraction decreases clot degradation rates, we analyzed clot degradation rates in the absence or presence of PLPs. […] Because clot contraction was not observed in the presence of non-fibrin binding ULC microgels or in the presence of fibrin-binding BIS crosslinked microgels or hard PS particles, we conclude that, while enhancement of clotting in vitro only requires high affinity and multivalency for fibrin, particle deformability is critical to the ability of fibrin-binding particles to induce clot collapse. To fully recapitulate the hemostatic functions of platelets (enhancement of dotting and clot contraction following hemostasis) it appears that both high fibrin affinity and high particle deformability are required.

[2] = target: T1, fibrin clots (Homo sapiens, UniProt P02671+P02675+P02679); test: Clot polymerization/degradation assay (thrombin, tPA, plasminogen; turbidity); format: biochemical; conditions: versus control clots or clots with S11-ULC microgels
T1 sequence (P02671 36-866 limits assumed): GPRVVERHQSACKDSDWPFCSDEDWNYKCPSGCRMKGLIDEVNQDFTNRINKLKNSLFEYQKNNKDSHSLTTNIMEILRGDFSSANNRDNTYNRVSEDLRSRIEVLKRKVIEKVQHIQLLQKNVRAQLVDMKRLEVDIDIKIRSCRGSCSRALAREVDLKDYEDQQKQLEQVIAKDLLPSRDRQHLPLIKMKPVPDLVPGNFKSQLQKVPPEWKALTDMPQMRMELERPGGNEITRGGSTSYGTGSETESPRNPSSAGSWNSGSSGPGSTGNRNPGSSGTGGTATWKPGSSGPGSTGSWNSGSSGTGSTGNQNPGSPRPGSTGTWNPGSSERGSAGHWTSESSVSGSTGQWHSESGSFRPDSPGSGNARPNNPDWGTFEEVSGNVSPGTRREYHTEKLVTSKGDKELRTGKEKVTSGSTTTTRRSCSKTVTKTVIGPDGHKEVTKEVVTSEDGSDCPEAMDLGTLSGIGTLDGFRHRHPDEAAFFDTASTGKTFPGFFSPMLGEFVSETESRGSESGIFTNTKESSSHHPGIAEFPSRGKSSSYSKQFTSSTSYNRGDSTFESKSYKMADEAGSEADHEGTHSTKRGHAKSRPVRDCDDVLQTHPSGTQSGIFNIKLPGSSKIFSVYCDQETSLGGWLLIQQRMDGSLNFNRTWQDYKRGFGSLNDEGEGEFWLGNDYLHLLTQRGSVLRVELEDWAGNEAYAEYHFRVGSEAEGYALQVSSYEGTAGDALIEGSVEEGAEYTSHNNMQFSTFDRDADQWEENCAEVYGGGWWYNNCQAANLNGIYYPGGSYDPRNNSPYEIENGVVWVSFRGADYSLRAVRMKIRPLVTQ
T1 sequence (P02675 45-491 limits assumed): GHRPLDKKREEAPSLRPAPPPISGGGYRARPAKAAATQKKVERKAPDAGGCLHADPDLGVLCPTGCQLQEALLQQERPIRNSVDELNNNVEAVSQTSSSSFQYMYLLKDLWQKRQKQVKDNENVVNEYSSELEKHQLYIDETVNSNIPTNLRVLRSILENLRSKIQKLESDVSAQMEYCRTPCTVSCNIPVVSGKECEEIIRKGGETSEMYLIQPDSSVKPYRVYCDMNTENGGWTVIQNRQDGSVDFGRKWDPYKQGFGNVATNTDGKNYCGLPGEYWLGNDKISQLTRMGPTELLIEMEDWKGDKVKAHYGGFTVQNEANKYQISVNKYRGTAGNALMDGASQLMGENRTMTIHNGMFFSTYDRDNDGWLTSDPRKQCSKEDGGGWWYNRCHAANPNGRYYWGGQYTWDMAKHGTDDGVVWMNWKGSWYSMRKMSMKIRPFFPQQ
T1 sequence (P02679 27-453): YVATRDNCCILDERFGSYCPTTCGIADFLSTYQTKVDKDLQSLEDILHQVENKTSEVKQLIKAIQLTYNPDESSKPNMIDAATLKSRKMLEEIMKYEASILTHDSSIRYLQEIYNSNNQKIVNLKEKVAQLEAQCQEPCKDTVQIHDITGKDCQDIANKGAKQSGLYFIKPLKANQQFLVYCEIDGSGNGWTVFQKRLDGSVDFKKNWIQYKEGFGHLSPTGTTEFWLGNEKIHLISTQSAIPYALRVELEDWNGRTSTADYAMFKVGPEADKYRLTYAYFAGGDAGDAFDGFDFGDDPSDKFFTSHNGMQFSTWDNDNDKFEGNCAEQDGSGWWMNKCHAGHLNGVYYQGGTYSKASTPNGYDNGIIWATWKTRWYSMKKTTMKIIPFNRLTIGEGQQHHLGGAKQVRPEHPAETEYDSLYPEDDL
Experimental: Thrombin-initiated fibrin polymerization and degradation assays were used to evaluate clotting rates and persistence in the presence of H6 and S11 (control) ULC microgels at different microgel and fibrinogen concentrations. Competing polymerization and degradation reactions were created with a 96 well plate, and a final volume of 100 μL per well. Two solutions were made, a fibrinogen-microgel solution that was loaded initially, and a thrombin-tPA (tissue Plasminogen Activator)-plasminogen solution that was added in a 1:1 volume ratio. Final concentrations in each well were 2 mg/mL microgel and 2 mg/mL of fibrinogen, 5 mMol Ca^+, 0.25 U/mL of human thrombin (Enzyme Research Laboratories, Inc., South Bend, Ind.), 0.29 μg/mL of tissue Plasminogen Activator(tPA), and 10.8 μg/mL of Plasminogen. The remainder of the volume in the thrombin/tPA/plasminogen solution was made up of 25 mM Hepes, 150 mM NaCl buffer. Turbidity curves were be generated from absorbance measurements (SpectraMax M2 Microplate Reader, Molecular Devices, Sunnyvale, Calif.) at 350 nm, with reads taken every thirty seconds.

- clot degradation [2]: more resistant to degradation
B1: PLPs: ultra-low crosslinked pNIPAm-AAc microgels conjugated to fibrin-specific sdFv H6 (conjugate)
VH: QVQLLESGGGLVQPGGSLRLSCAASGDRFTHNDMGWVRQAPGKGLEWVSTIPTTDGSTYYADSVKGRFTISRDNSKSTLYLQMNSLRAEDTAVYYCATGYMWKAPAYVKYWGQGTLVTVSSAAAEQKLISEEDLNSAAHYTDIG
- overall degree of clot contraction ([1]; platelet-poor plasma with particles versus native platelet-rich plasma): No significant differences
- time to clot collapse ([1]; platelet-poor plasma, 1 U/mL thrombin): ≤ 48 h
- rate of induced clot collapse ([1]; versus native platelet-containing clots): significantly less
